Assay [1] has as its target PSGL-1 (P-选择蛋白糖蛋白配体-1) (human) (UniProt Q14242). Kind of assay: FACS on ML2 cells, KPL-1-PE alone.
Assay [2] shares this target. Kind of assay: FACS competition on ML2 cells, 200ng KPL-1 against IgG Y1-PE.

Sequence of UniProt Q14242 (Q14242 42-412): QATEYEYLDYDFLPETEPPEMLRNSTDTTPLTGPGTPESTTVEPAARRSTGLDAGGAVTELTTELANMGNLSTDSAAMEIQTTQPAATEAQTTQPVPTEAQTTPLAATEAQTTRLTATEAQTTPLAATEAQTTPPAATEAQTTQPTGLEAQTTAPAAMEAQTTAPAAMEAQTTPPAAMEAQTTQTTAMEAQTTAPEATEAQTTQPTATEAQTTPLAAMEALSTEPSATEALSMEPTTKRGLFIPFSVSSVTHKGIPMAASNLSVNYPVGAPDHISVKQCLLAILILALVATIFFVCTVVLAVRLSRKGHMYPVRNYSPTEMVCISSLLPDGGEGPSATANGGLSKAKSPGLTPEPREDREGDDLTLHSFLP

With KPL-1 (商业化供应的抗PSGL1小鼠单克隆抗体) (antibody), in assay [1], the 中值 (median fluorescence) was found to be 700. In assay [2], the 中值 of IgG Y1-PE with competitor (median fluorescence) stood at 2 and the 抑制百分比 turned out to be 100%.
